How the values were obtained:
[1] = test system: Staphylococcus epidermidis (ATCC 12228); assay: Radial diffusion (inhibition zone) assay; format: cell-based; conditions: S. epidermidis
Method: (§1) Antimicrobial assays. E. coli (ATCC 25922), Pseudomonas aeruginosa (ATCC 8427), Salmonella typhimurium (ATCC 13311), Proteus vulgaris (ATCC 8427), Staphylococcus epidermidis (ATCC 12228), and MRSA (ATCC 33591) isolates were maintained on trypticase soy broth (TSB) agar plates. Individual colonies were selected and cultured overnight in TSB, subcultured once at 1:50 in fresh TSB, and then grown to stationary phase for use in all experiments. The radial diffusion assay was performed in 0.5% agarose and 0.75% tryptone brought to ebullition and cooled to 43° C., and then mixed with […] of bacterial suspension and poured into a 10 cm Petri dish. A series of small wells (diameter, 3 mm) were punched in the plate after the agarose solidified. Two microliters of test samples were applied in each well. Plates were incubated at 37° C. overnight to allow visible growth of bacteria. Antibacterial activity was indicated by the clear zone (no bacterial growth) around the well.
(§2) Antimicrobial activity of recombinant cathelin-like protein. Recombinant cathelicidins were tested for antimicrobial activity using a standard radial diffusion assay. Different concentrations of the cathelin-like protein were loaded into wells on assay plates containing Gram-positive MRSA, S. epidermidis, and strains of the Gram-negative bacterial species E. coli, S. enteritidis, P. vulgaris, and P. aeruginosa. […] Similarly, cathelin-like protein inhibited growth of S. epidermidis ([…]) but not S. enteritidis or P. vulgaris.

[2] = test system: Pseudomonas aeruginosa (ATCC 8427); assay: Radial diffusion (inhibition zone) assay; format: cell-based; conditions: P. aeruginosa
Method: as §1, §2

S. enteritidis = assay: Radial diffusion (inhibition zone) assay; format: cell-based
Method: as §1, §2

[3] = test system: Proteus vulgaris (ATCC 8427); assay: Radial diffusion (inhibition zone) assay; format: cell-based; conditions: P. vulgaris
Method: as §1, §2

E. coli (ATCC 25922) = assay: Radial diffusion (inhibition zone) assay; format: cell-based
Method: as §1, §2

MRSA = assay: Colony-forming assay (CFU), liquid phase; format: cell-based, Staphylococcus aureus; conditions: 10 mM phosphate, 1% TSB, pH 7.4
Method: (§3) FIGS. 3A–C show Growth inhibition of MRSA, E. coli, and P. aeruginosa by cathelin-like protein. (a) Inhibition zone ssay on tryptone/agarose plates with MRSA. Clear circles show lack of bacterial growth. Lanes 1, 3, 5, bottom row: cathelin-like protein at […], 16 μM, respectively. Lane 2, top row:[…] of His-tagged cathelin-like protein before cleavage. Lane 4, top: enterokinase enzyme alone. All assays were performed in duplicate and repeated three times. (b), (c) CFU assay: growth inhibition of (b) MRSA and (c) E. coli, cultured in 10 mM phosphate and 1% TSB (pH 7.4) and then supplemented with different concentrations of human cathelin-like protein.
(§4) The colony-forming assay (CFU) was performed. Bacterial cultures (E. coli or MRSA) were collected at the logarithmic phase of growth in TSB, washed twice with phosphate-buffered saline, pH 7.4, and diluted to 104 CFU per ml in 10 mM phosphate buffer, pH 7.4, Na2HPO4/NaH2PO4-1% TSB (g per 1). Forty-five microliters of bacterial suspension were mixed with […] of H2O (control) or with […] of different concentrations of cathelin-like proteins, and the mixture was incubated at 37° C. Every 30 min, a […] aliquot of the reaction mixture was plated directly onto a TSB agar plate and then incubated at 37° C. overnight for enumeration of CFU. Data are reported as growth index=final CFU/CFU in initial inoculum. […]

MRSA (ATCC 33591) = assay: Radial diffusion (inhibition zone) assay; format: cell-based, Staphylococcus aureus; conditions: MRSA
Method: as §3
as §1, with “A series of small wells (diameter, 3 mm) were punched in the plate after the agarose solidified. Two microliters of test samples were applied in each well. Plates were incubated at 37° C. overnight to allow visible growth of bacteria. Antibacterial activity was indicated by the clear zone (no bacterial growth) around the well.” left out

E. coli = assay: Colony-forming assay (CFU), liquid phase; format: cell-based; design: unit of the concentration uncertain; conditions: 10 mM phosphate, 1% TSB
Method: as §3, §4

human liver cathepsin L = target: T1, human liver cathepsin L (Homo sapiens, UniProt P07711); assay: Proteinase activity inhibition assay (hydrolysis of Z-Phe-Arg-AMC); format: biochemical
T1 construct: human liver cathepsin L (Calbiochem, Calif.); purchased Calbiochem; host or cells: human liver
T1 sequence (P07711 114-288 limits assumed): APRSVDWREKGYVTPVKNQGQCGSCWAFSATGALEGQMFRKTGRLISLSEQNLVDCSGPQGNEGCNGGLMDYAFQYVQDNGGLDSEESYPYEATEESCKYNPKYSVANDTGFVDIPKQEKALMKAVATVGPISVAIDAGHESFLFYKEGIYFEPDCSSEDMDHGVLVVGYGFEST
T1 sequence (P07711 292-333 limits assumed): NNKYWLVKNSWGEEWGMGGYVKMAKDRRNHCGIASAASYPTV
Method: FIG. 2 show the proteinase inhibitory activity of recombinant cathelin-like protein. Hydrolysis of the fluorogenic substrate Z-Phe-Arg-AMC by cathepsin L (protease alone), and in the presence of cathelin-like protein (protease+cathelin). […] Slopes, intercepts, and correlation coefficients were calculated by linear regression. Data were recorded 10 times over 30 min and are representative of two experiments.
Proteinase activity inhibition assay. Proteinase inhibitory activity of recombinant cathelin-like protein was assayed spectrofluorometrically by measuring its inhibitory action against human liver cathepsin L (Calbiochem, Calif.). For the reaction assay, cathepsin L (0.1 mU) in the assay buffer ([…] sodium acetate, 60 mM acetic acid, 8 mM dithiothreitol, and 4 mM EDTA, pH 5.5, supplemented with 0.1% BRIJ 35) was preincubated for 2 min at 30° C. with 10^−6 M cathelin-like protein before adding […] of substrate Z-Phe-Arg-7-amido-4-methylcoumarin (Calbiochem). When hydrolyzed by cathepsin L, this substrate releases highly fluorescent 7-amido-4-methylcoumarin (AMC). AMC intensity was determined using spectrophotometer at 370 nm excitation and an emission wavelength of 460 nm. One unit was defined as the amount of enzyme that will hydrolyze 1.0 mmol of Z-Phe-Arg-AMC per min at 25° C., pH 5.5.
Proteinase inhibitory activity. To evaluate the possible protease inhibitory activity action of cathelin-like protein, the activity of human cathepsin L was measured in the presence or absence of recombinant cathelin-like protein using the fluorescent substrate Z-Phe-Arg-AMC.

B1: hCAP18/LL-37: recombinant human full-length cathelicidin, residues 31-170 of SEQ ID NO:2, inactive precursor (protein, listed as Homo sapiens)
chain: QVLSYKEAVLRAIDGINQRSSDANLYRLLDLDPRPTMDGDPDTPKPVSFTVKETVCPRTTQQSPEDCDFKKDGLVKRCMGTVTLNQARGSFDISCDKDNKRFALLGDFFRKSKEKIGKEFKRIVQRIKDFLRNLVPRTES
minimal inhibitory activity against growth, concentration [1]: greater than 64 mM
minimal inhibitory activity against growth, concentration [2]: greater than 64 mM
minimal inhibitory activity against growth, concentration (S. enteritidis): greater than 64 mM
minimal inhibitory activity against growth, concentration [3]: greater than 64 mM
minimal inhibitory activity against growth, concentration (E. coli (ATCC 25922)): greater than 64 mM
effect on growth (CFU) (MRSA): did not show any activity
minimal inhibitory activity against growth, concentration (MRSA (ATCC 33591)): greater than 64 mM
effect on growth (CFU) (E. coli; 32 (unit uncertain), pH 7.4): did not show any activity
cathepsin L inhibitory activity (human liver cathepsin L; parallel experiments): did not demonstrate inhibitory activity

B2: cathelin-like protein: recombinant human cathelin-like domain of hCAP18, residues 31-131 of SEQ ID NO:2, expressed in E. coli, His-tag cleaved by enterokinase (protein, listed as Homo sapiens)
chain: QVLSYKEAVLRAIDGINQRSSDANLYRLLDLDPRPTMDGDPDTPKPVSFTVKETVCPRTTQQSPEDCDFKKDGLVKRCMGTVTLNQARGSFDISCDKDNKR
minimal inhibitory activity against growth, concentration [1]: 32 mM
growth inhibition [2]: did not inhibit growth
growth inhibition (S. enteritidis): not
growth inhibition [3]: not
minimal inhibitory activity against growth, concentration (E. coli (ATCC 25922)): 16 mM
effect on growth (CFU) (MRSA; concentration not given): decreased MRSA CFU for the first 15 min and then was bacteriostatic
minimal inhibitory activity against growth, concentration (MRSA (ATCC 33591)): 32 mM
effect on growth (CFU) (E. coli; 16 (unit uncertain), pH 7.4, compared to untreated controls): marked growth inhibition
slope of fluorescence generation (linear regression) (human liver cathepsin L; cathepsin L + cathelin-like protein, cathepsin L alone slope 1.31): 0.71
hydrolytic activity of cathepsin L inhibited by (human liver cathepsin L; protein added at final concentration of 10^-6 M, substrate Z-Phe-Arg-AMC): 46%

Source: patent US7173007B1, “Therapy for microbial infections” (The Regents of the University of California, priority 2003, dated 2007)
